Results as given in patent US20190054150A1 (AEQUUS BIOPHARMA, published 2019).
Square brackets hold non-standard residues; d marks the D form. Ends that are not written are not given here. Nle = CCCC[C@H](N)C(=O)O; βAla = NCCC(=O)O

Columns and labels:
Test in all cases: cell-based or functional assay
MCR1 = MCR1 (human, UniProt Q01726 1-317)
MCR3 = MCR3 (human, UniProt P41968 1-323)
MCR4 = MCR4 (human, UniProt P32245 1-332)
MCR5 = MCR5 (human, UniProt P33032 1-325)
Chain of MCR5 (P33032 whole entry): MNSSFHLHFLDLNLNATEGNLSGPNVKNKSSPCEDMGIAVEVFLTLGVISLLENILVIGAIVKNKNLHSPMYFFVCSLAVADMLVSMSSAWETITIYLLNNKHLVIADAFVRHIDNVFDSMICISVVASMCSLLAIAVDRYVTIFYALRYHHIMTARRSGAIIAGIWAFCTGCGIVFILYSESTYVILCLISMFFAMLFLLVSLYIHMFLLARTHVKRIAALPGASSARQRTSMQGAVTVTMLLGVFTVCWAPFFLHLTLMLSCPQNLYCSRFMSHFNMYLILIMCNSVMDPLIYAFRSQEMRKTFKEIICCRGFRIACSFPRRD

Chain of MCR4 (P32245 whole entry): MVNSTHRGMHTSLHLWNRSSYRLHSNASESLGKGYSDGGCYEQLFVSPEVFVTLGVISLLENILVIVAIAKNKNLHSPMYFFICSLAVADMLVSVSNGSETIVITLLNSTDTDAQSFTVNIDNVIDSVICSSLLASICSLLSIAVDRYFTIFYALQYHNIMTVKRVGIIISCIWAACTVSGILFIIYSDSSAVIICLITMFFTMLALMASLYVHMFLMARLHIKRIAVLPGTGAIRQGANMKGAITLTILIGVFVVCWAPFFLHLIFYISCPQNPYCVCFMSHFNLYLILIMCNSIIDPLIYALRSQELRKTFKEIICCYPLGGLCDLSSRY
Chain of MCR3 (P41968 whole entry): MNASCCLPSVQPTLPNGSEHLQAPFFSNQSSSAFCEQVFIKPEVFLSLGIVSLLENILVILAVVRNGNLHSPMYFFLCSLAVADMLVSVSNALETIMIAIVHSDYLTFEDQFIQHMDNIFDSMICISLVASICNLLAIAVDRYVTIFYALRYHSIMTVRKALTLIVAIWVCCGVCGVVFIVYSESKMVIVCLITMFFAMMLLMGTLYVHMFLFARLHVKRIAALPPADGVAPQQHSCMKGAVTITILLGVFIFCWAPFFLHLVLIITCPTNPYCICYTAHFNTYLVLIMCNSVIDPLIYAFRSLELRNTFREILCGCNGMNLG
Chain of MCR1 (Q01726 whole entry): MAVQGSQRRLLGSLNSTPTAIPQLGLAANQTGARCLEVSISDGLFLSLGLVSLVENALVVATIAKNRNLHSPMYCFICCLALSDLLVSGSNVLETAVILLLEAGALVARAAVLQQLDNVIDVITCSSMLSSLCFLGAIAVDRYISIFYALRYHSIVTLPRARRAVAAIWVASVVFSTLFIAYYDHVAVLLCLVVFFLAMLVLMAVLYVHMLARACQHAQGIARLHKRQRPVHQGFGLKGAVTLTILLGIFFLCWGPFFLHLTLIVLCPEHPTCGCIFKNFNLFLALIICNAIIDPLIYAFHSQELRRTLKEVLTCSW

Row | Binder | MCR1 EC50 (nM); cAMP production, LANCE cAMP assay, CHO-MCR1 cells, cell pool B (MCR1) | MCR3 EC50 (nM); cAMP production, LANCE cAMP assay, CHO-MCR3 cells, cell pool B (MCR3) | MCR4 EC50 (nM); cAMP production, LANCE cAMP assay, CHO-MCR4 cells, cell pool B (MCR4) | further results
1 | ACTH1-24-linker-MMP site-linker-NDP-α-MSH (ends and bridges not checked) peptide: SYSMEHFRWGKPVGKKRRPVKVYPGGGGSPLGLWAGGGGSSYS[Nle]EH[dF]RWGKPV | 1.6 nM | 4.7 nM | 5.8 nM | 
2 | ACTH1-24-natural C-terminal spacer-α-MSH (peptide) peptide: SYSMEHFRWGKPVGKKRRPVKVYPELTGQRLREGDGPDGPADDGAGASYSMEHFRWGKPV | 1.02 nM | 22 nM | > 20 nM | 
3 | SYSMEHFRWGKPVGKKRRAVKVYP [ACTH1-24-point-5] |  |  |  | MCR1 EC50 (nM); cAMP production, LANCE cAMP assay, CHO-MCR1 cells, cell pool C (MCR1): 0.31 nM; MCR3 EC50 (nM); cAMP production, LANCE cAMP assay, CHO-MCR3 cells, cell pool C (MCR3): 10 nM; MCR4 EC50 (nM); cAMP production, LANCE cAMP assay, CHO-MCR4 cells, cell pool C (MCR4): 60 nM; MCR5 EC50 (nM); cAMP production, LANCE cAMP assay, CHO-MCR5 cells, cell pool C (MCR5): > 100 nM
4 | ACTH1-24-linker-Furin site-linker-NDP-α-MSH (ends and bridges not checked) peptide: SYSMEHFRWGKPVGKKRRPVKVYPGGGGSRRKRGGGGSSYS[Nle]EH[dF]RWGKPV | 0.202 nM | 0.453 nM | 1.9 nM | 
5 | SYSMEHFRWGKPVGAARRPVKVYP [ACTH1-24-point-1-2] |  |  |  | MCR1 EC50 (nM); cAMP production, LANCE cAMP assay, CHO-MCR1 cells, cell pool C (MCR1): 0.43 nM; MCR3 EC50 (nM); cAMP production, LANCE cAMP assay, CHO-MCR3 cells, cell pool C (MCR3): 10 nM; MCR4 EC50 (nM); cAMP production, LANCE cAMP assay, CHO-MCR4 cells, cell pool C (MCR4): 62 nM; MCR5 EC50 (nM); cAMP production, LANCE cAMP assay, CHO-MCR5 cells, cell pool C (MCR5): 275 nM
6 | NDP-α-MSH-linker-Furin site-linker-ACTH1-24 (peptide) peptide: Ac-SYS[Nle]EH[dF]RWGKPVGGGGSRRKRGGGGSSYSMEHFRWGKPVGKKRRPVKVYP | 0.333 nM | 4 nM | 6.5 nM | 
7 | SYSMEHFRWGKPVGKKAAAVKVYPSYS[Nle]EH[dF]RWGKPV [ACTH1-24-point-3-5-NDP-α-MSH] |  |  |  | MCR1 EC50 (nM); cAMP production, LANCE cAMP assay, CHO-MCR1 cells, cell pool C (MCR1): 0.32 nM; MCR3 EC50 (nM); cAMP production, LANCE cAMP assay, CHO-MCR3 cells, cell pool C (MCR3): 0.92 nM; MCR4 EC50 (nM); cAMP production, LANCE cAMP assay, CHO-MCR4 cells, cell pool C (MCR4): 2.2 nM; MCR5 EC50 (nM); cAMP production, LANCE cAMP assay, CHO-MCR5 cells, cell pool C (MCR5): 25 nM
8 | SYSMEHFRWGKPVGKKRRPVKVYPNGAEDESAEAFPLEFKR [ACTH1-39] | 0.55 nM | 18 nM | 31 nM | 
9 | SYSMEHFRWGKPVGKKRRAVKVYPSYS[Nle]EH[dF]RWGKPV [ACTH1-24-point-5-NDP-α-MSH] |  |  |  | MCR1 EC50 (nM); cAMP production, LANCE cAMP assay, CHO-MCR1 cells, cell pool C (MCR1): 0.44 nM; MCR3 EC50 (nM); cAMP production, LANCE cAMP assay, CHO-MCR3 cells, cell pool C (MCR3): 1.5 nM; MCR4 EC50 (nM); cAMP production, LANCE cAMP assay, CHO-MCR4 cells, cell pool C (MCR4): 3.4 nM; MCR5 EC50 (nM); cAMP production, LANCE cAMP assay, CHO-MCR5 cells, cell pool C (MCR5): 28 nM
10 | NDP-α-MSH-linker-MMP (broad) site-linker-ACTH1-24 (peptide) peptide: Ac-SYS[Nle]EH[dF]RWGKPVGGGGSPAGLVAGGGGSSYSMEHFRWGKPVGKKRRPVKVYP | 0.295 nM | 1.5 nM | 1.9 nM | 
11 | YVMGHFRWDRFGKRSYSMEHFRWGKPVGKKRRPVKVYP [γ-MSH-ACTH1-24] |  |  |  | MCR1 EC50 (nM); cAMP production, LANCE cAMP assay, CHO-MCR1 cells, cell pool A (MCR1): 22 nM; MCR3 EC50 (nM); cAMP production, LANCE cAMP assay, CHO-MCR3 cells, cell pool A (MCR3): 38 nM
12 | ACTH1-24-natural N-terminal spacer-NDP-α-MSH (ends and bridges not checked) peptide: SYSMEHFRWGKPVGKKRRPVKVYPPLPEGGPEPRSDGAKPGPREGKRSYS[Nle]EH[dF]RWGKPV | 0.63 nM | 0.62 nM | 1.6 nM | 
13 | SYSXEHXRWGKPVGKKRRPVKVYP (Nle and DPhe as printed: SYS-Nle-EH-DPhe-RWGKPVGKKRRPVKVYP) [NDP-ACTH] |  |  |  | MCR1 EC50 (nM); cAMP production, LANCE cAMP assay, CHO-MCR1 cells, cell pool C (MCR1): 0.11 nM; MCR3 EC50 (nM); cAMP production, LANCE cAMP assay, CHO-MCR3 cells, cell pool C (MCR3): 0.21 nM; MCR4 EC50 (nM); cAMP production, LANCE cAMP assay, CHO-MCR4 cells, cell pool C (MCR4): 0.22 nM; MCR5 EC50 (nM); cAMP production, LANCE cAMP assay, CHO-MCR5 cells, cell pool C (MCR5): 1.1 nM
14 | SYSMEHFRWGKPVGKKRRPVKVYPSYS[Nle]EH[dF]RWGKPV (ends and bridges not checked) [ACTH1-24-NDP-α-MSH] |  |  |  | MCR1 EC50 (nM); cAMP production, LANCE cAMP assay, CHO-MCR1 cells, cell pool C (MCR1): 0.28 nM; MCR3 EC50 (nM); cAMP production, LANCE cAMP assay, CHO-MCR3 cells, cell pool C (MCR3): 1.5 nM; MCR4 EC50 (nM); cAMP production, LANCE cAMP assay, CHO-MCR4 cells, cell pool C (MCR4): 2.3 nM; MCR5 EC50 (nM); cAMP production, LANCE cAMP assay, CHO-MCR5 cells, cell pool C (MCR5): 24 nM
15 | YVMGHFRWDRFGRRNSSSSGSSGAGQSYSMEHFRWGKPVGKKRRPVKVYP [γ-MSH-ACTH1-24 linker without cleavable site] |  |  |  | MCR1 EC50 (nM); cAMP production, LANCE cAMP assay, CHO-MCR1 cells, cell pool A (MCR1): 11 nM; MCR3 EC50 (nM); cAMP production, LANCE cAMP assay, CHO-MCR3 cells, cell pool A (MCR3): 16 nM
16 | [Nle]EH[dF]RW[βAla]G[βAla][Nle]EH[dF]RW [NDP-ACTH4-9-βAla-G-βAla-NDP-ACTH4-9] | 0.35 nM | 25 nM | 6.7 nM | 
17 | XEHXRWAGASYSMEHFRWGKPVGKKRRPVKVYP (Nle, dPhe and β-Ala residues as printed: Nle-EH-dPhe-RW-β-Ala-G-β-Ala-SYSMEHFRWGKPVGKKRRPVKVYP) [NDP-ACTH4-9-βAla-G-βAla-ACTH1-24] | 0.16 nM | 5.5 nM | 2.4 nM | 
18 | NDP-α-MSH-linker-MMP site-linker-ACTH1-24 (peptide) peptide: Ac-SYS[Nle]EH[dF]RWGKPVGGGGSPLGLWAGGGGSSYSMEHFRWGKPVGKKRRPVKVYP | 2.4 nM | 17 nM | 14 nM | 
19 | ACTH1-24-natural N-terminal spacer-α-MSH (peptide) peptide: SYSMEHFRWGKPVGKKRRPVKVYPPLPEGGPEPRSDGAKPGPREGKRSYSMEHFRWGKPV | 0.82 nM | 6.2 nM | > 20 nM | 
20 | SYSMEHFRWGKPVGKKAAAVKVYP [ACTH1-24-point-3-5] |  |  |  | MCR1 EC50 (nM); cAMP production, LANCE cAMP assay, CHO-MCR1 cells, cell pool C (MCR1): 0.54 nM; MCR3 EC50 (nM); cAMP production, LANCE cAMP assay, CHO-MCR3 cells, cell pool C (MCR3): 14 nM; MCR4 EC50 (nM); cAMP production, LANCE cAMP assay, CHO-MCR4 cells, cell pool C (MCR4): 128 nM; MCR5 EC50 (nM); cAMP production, LANCE cAMP assay, CHO-MCR5 cells, cell pool C (MCR5): > 100 nM
21 | YVMGHFRWDRFGRRNSSSSGSSGAGQKR [γ-MSH with linker] | 19 nM | 11 nM | > 100 nM | 
22 | ACTH1-24-natural C-terminal spacer-NDP-α-MSH (ends and bridges not checked) peptide: SYSMEHFRWGKPVGKKRRPVKVYPELTGQRLREGDGPDGPADDGAGASYS[Nle]EH[dF]RWGKPV | 0.8 nM | 1.66 nM | 8.7 nM | 
23 | XEHXRWSYSMEHFRWGKPVGKKRRPVKVYP (Nle at position 1 and dPhe at position 4 as printed: Nle-EH-dPhe-RWSYSMEHFRWGKPVGKKRRPVKVYP) [NDP-ACTH4-9-ACTH1-24] | 0.17 nM | 6.8 nM | 0.8 nM | 
24 | ACTH1-24-linker-MMP (broad) site-linker-NDP-α-MSH (ends and bridges not checked) peptide: SYSMEHFRWGKPVGKKRRPVKVYPGGGGSPAGLVAGGGGSSYS[Nle]EH[dF]RWGKPV | 0.528 nM | 1 nM | 4.8 nM | MCR1 EC50 (nM); cAMP production, LANCE cAMP assay, CHO-MCR1 cells, cell pool B (second value printed below the first) (MCR1): 0.36 nM
25 | SYSMEHFRWGKPVGKKRRPVKVYPGGGGSRRKRSYS[Nle]EH[dF]RWGKPV [ACTH1-24-proconvertase-NDP-α-MSH] | 0.44 nM | 0.51 nM | 1.6 nM | 
26 | SYSMEHFRWGKPVGAARRPVKVYPSYS[Nle]EH[dF]RWGKPV (ends and bridges not checked) [ACTH1-24-point-1-2-NDP-α-MSH] |  |  |  | MCR1 EC50 (nM); cAMP production, LANCE cAMP assay, CHO-MCR1 cells, cell pool C (MCR1): 0.28 nM; MCR3 EC50 (nM); cAMP production, LANCE cAMP assay, CHO-MCR3 cells, cell pool C (MCR3): 0.72 nM; MCR4 EC50 (nM); cAMP production, LANCE cAMP assay, CHO-MCR4 cells, cell pool C (MCR4): 1.4 nM; MCR5 EC50 (nM); cAMP production, LANCE cAMP assay, CHO-MCR5 cells, cell pool C (MCR5): 21 nM
27 | YVMGHFRWDRFGSYSMEHFRWGKPVGKKRRPVKVYP [γ-MSH-ACTH1-24 without linker and cleavage site] |  |  |  | MCR1 EC50 (nM); cAMP production, LANCE cAMP assay, CHO-MCR1 cells, cell pool A (MCR1): 12 nM; MCR3 EC50 (nM); cAMP production, LANCE cAMP assay, CHO-MCR3 cells, cell pool A (MCR3): 33 nM
28 | SYSMEHFRWGKPVGKKRRPVKVYPGGGGSRRKRSYSMEHFRWGKPV [ACTH1-24-proconvertase-α-MSH] | 0.92 nM | 6.1 nM | 26 nM | 
